According to patent publication US20160194407A1 (AstraZeneca / MedImmune, published 2016):
Substitutions are numbered along the chain they refer to.

What was measured:
[1] = target: T1, murine CD73 on cells (murine, UniProt Q61503 29-551); experiment: cell-based or functional assay
T1 sequence (looked up): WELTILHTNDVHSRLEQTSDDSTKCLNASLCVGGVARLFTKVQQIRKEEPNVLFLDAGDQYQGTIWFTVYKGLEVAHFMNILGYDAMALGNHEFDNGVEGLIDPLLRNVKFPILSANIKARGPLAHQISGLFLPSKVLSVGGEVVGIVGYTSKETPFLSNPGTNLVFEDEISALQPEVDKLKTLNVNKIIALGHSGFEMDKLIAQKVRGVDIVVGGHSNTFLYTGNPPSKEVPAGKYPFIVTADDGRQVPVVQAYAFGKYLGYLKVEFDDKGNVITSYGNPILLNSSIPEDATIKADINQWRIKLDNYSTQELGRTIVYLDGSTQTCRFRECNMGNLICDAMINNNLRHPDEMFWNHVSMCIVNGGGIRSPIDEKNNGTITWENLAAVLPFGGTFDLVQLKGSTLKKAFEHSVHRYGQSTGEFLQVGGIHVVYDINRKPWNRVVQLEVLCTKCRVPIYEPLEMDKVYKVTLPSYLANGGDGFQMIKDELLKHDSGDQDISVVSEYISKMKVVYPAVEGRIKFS

[2] = target: T2, human CD73 N185G (human, UniProt P21589 27-553, N185G); experiment: SPR ProteOn, His-tagged CD73 variant on HTG chip, 2:1 fit
T2 sequence: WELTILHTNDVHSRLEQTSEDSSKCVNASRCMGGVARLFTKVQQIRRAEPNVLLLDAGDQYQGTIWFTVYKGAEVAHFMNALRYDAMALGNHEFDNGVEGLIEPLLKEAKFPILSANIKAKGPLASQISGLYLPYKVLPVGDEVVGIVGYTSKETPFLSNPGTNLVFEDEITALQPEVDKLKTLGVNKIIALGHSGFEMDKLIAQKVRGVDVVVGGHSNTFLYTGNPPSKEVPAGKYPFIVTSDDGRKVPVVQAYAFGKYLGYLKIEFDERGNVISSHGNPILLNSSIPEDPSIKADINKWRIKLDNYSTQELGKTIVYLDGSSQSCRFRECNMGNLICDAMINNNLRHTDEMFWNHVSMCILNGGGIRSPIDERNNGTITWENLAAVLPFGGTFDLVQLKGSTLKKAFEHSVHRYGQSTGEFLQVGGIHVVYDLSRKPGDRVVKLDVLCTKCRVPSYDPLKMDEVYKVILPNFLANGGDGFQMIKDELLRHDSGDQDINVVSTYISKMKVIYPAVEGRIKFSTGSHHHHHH

[3] = target: T3, cynomolgus CD73 extracellular domain (ECD) (cynomolgus); experiment: SPR ProteOn, antibody captured by anti-human Fc, CD73 ECD in mobile phase, 1:1 model
T3 construct: extracellular domain; also called Cynomolgus CD73 ECD; cyno CD73 (SPR Proteon)

[4] = target: T4, CD73 construct with chicken N- and C-terminal domain sequence and knocked-in human V144 and N185; experiment: SPR ProteOn, His-tagged CD73 variant on HTG chip
T4 construct: K180 is conserved between chicken and human; also called chicken CD73 replaced with V144 and N185; knock-in
T4 chain: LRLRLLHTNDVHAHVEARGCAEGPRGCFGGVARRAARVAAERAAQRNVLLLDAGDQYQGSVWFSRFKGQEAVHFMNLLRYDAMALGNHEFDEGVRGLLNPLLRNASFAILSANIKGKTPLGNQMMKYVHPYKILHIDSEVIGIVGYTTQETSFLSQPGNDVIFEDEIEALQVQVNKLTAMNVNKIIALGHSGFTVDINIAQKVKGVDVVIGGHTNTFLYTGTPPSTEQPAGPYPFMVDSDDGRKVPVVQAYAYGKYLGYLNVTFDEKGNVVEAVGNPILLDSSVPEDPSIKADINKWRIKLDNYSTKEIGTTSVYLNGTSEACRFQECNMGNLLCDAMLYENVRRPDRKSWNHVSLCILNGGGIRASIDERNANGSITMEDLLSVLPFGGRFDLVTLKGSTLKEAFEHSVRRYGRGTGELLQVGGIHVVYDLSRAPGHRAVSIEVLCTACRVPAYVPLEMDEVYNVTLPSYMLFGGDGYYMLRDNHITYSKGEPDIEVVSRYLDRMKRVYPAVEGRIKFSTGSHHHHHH

[5] = target: T5, cynomolgus CD73 on cells (cynomolgus); experiment: flow cytometry on MK-1 cells, IgG1-TM
T5 construct: whole, on cells; also called native CD73 on MK-1 cells (cynomolgus)

[6] = target: T4, CD73 construct with chicken N- and …; experiment: SPR ProteOn, MEDI9447 dilutions from 5 nM to 0.3 nM
[7] = target: T3, cynomolgus CD73 extracellular domain …; experiment: SPR (Proteon), IgG1-TM
[8] = target: T6, recombinant mature human CD73 (amino acid positions 1-526) with C-terminal 6x-histidine tag (human, UniProt P21589 27-553); experiment: cell-based or functional assay
T6 sequence: T2 sequence with G185N

B1: MEDI9447 (antibody, V domains shown)
VH: EVQLLESGGGLVQPGGSLRLSCAASGFTFSSYAYSWVRQAPGKGLEWVSAISGSGGRTYYADSVKGRFTISRDNSKNTLYLQMNSLRAEDTAVYYCARLGYGRVDEWGRGTLVTVSS
VL: QSVLTQPPSASGTPGQRVTISCSGSLSNIGRNPVNWYQQLPGTAPKLLIYLDNLRLSGVPDRFSGSKSGTSASLAISGLQSEDEADYYCATWDDSHPGWTFGGGTKLTVL
notes: also called clone 10.3 antibody; 73combo3
For B1, the “FabZAP internalization, max toxicity, 4T1” value [1] was 97%, the koff [2] was 0.000245 s⁻¹ and the kon [2] was 9.11e+06 M⁻¹ s⁻¹. The Kd [3] was 0.0065 nM, the koff [3] was 1.76e-05 s⁻¹ and the kon [3] was 2.71e+06 M⁻¹ s⁻¹. For the same binder, the Kd [4] was 0.079 nM, the Kd [5] was 0.084 nM and the “fold of the KD for wild-type CD73” value [6] was < 20 fold. The Kd [7] was 0.007 nM and the “inhibition of sCD73 hydrolysis of AMP (CellTiterGlo), dose response” value [8] was ~1 IgG per sCD73 dimer (molar ratio).
